Results from PMC3696004.

B1: Fib3 prey fusion protein from the Y2H screen (EFEMP1/Fibulin 3 residues 289-493) (domain or fragment)
chain: RLNCEDIDECRTSSYLCQYQCVNEPGKFSCMCPQGYQVVRSRTCQDINECETTNECREDEMCWNYHGGFRCYPRNPCQDPYILTPENRCVCPVSNAMCRELPQSIVYKYMSIRSDRSVPSDIFQIQATTIYANTINTFRIKSGNENGEFYLRQTSPVSAMLVLVKSLSGPREHIVDLEMLTVSSIGTFRTSSVLRLTIIVGPFSF

Columns and labels:
[1] = target: HAFib3 (Fib3 prey fragment with an N-terminal hemagglutinin tag) (human) (UniProt Q12805); test: ELISA; HAFib3 (250 ng/ml) captured on plate-bound anti-HA antibody; a range of concentrations of CFH678 (H or Y) in PBS, overnight at 4°C; detected with goat anti-CFH and HRP secondary antibody at 450 nm; background without HAFib3 subtracted, 8 replicates; one-site specific binding fit (GraphPad Prism)
[2] = target: CFH SCR7 bait, 402H variant (human); test: two-hybrid; quantitative βGal assay in selective liquid culture with CPRG substrate, Miller Units; five independent yeast clones for each bait
CFH SCR7 bait, 402H variant (human), sequence (P08603 19-1231, change not shown): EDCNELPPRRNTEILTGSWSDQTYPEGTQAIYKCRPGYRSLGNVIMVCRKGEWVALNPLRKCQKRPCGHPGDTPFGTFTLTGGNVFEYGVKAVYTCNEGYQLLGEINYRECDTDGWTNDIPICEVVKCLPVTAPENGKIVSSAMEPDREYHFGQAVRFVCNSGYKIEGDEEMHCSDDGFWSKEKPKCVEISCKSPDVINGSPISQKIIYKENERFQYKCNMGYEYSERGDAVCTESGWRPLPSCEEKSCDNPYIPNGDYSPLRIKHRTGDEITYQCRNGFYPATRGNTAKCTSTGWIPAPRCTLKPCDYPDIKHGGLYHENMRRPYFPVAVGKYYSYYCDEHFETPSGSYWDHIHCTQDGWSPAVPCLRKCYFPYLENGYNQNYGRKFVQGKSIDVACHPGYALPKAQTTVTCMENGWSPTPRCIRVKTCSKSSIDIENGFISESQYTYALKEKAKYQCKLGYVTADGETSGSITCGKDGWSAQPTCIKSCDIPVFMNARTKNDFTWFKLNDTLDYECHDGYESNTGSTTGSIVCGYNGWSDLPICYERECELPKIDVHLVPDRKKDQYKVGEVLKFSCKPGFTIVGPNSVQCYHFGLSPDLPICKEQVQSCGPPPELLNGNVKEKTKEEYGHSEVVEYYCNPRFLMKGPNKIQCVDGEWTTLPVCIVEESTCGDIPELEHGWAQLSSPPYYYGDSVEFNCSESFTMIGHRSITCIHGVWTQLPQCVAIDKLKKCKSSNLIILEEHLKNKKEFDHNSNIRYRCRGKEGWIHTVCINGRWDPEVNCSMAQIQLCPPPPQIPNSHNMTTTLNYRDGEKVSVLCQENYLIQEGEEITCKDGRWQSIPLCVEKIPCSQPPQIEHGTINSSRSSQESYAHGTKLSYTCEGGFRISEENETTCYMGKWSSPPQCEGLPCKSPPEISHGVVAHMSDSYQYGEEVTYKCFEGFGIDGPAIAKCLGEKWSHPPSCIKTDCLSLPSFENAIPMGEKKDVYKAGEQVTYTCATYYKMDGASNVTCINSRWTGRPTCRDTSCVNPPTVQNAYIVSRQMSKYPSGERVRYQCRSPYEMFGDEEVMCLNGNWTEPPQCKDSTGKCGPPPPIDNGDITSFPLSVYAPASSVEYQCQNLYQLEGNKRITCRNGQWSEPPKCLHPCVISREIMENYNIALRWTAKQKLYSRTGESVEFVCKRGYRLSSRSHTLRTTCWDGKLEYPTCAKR

Row | Molecule | Kd [1] [nM] | higher βGal activation than with CFH-Y [2] [%]
1 | Recombinant CFH domains 6-8, 402H variant (CFH678-H) (domain or fragment) | 134 | –
2 | Recombinant CFH domains 6-8, 402Y variant (CFH678-Y) (domain or fragment) | 197 | –
3 | B1 | – | 60
